Assay results reported in PMC10785082 (ACS Omega, 2023).
pKd: −log10 of the molar value.

Legend:
E3 ligase CDC20 = conditions: read-out: KD for CDC20; cited from earlier work
USP33 ZnF-UBD = target: T1, USP33 ZnF-UBD (Homo sapiens, UniProt Q8TEY7); test: SPR binding to USP33 ZnF-UBD
T1 sequence (Q8TEY7 29-134): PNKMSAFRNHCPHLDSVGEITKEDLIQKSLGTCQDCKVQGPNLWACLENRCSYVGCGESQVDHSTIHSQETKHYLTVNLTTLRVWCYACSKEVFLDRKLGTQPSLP

USP5 ZnF-UBD = target: T2, USP5 ZnF-UBD (Homo sapiens, UniProt P45974); test: SPR binding to USP5 ZnF-UBD
T2 sequence (P45974 171-290): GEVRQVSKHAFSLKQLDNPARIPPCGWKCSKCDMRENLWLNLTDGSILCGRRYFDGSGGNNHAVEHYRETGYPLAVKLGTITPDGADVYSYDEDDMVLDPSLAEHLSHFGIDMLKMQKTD

USP39 ZnF-UBD = target: T3, USP39 ZnF-UBD (Homo sapiens, UniProt Q53GS9); test: SPR binding to USP39 ZnF-UBD
T3 sequence (Q53GS9 84-194): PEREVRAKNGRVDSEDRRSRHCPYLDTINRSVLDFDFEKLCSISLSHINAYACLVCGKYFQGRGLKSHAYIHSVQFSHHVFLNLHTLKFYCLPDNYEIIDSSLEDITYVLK

USP49 ZnF-UBD = target: T4, USP49 ZnF-UBD (Homo sapiens, UniProt Q70CQ1); test: SPR binding to USP49 ZnF-UBD
T4 sequence (Q70CQ1 1-115): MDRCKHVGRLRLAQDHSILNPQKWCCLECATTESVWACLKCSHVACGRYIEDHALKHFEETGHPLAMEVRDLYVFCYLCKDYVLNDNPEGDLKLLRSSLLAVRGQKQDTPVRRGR

HDAC6 ZnF-UBD = target: T5, HDAC6 ZnF-UBD (Homo sapiens, UniProt Q9UBN7); test: SPR binding to HDAC6 ZnF-UBD
T5 sequence (Q9UBN7 1109-1215): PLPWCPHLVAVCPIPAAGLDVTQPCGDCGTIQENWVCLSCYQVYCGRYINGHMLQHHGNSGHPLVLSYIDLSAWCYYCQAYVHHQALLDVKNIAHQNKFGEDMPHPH

USP13 ZnF-UBD = target: T6, USP13 ZnF-UBD (Homo sapiens, UniProt Q92995); test: SPR binding to USP13 ZnF-UBD
T6 sequence (Q92995 183-307): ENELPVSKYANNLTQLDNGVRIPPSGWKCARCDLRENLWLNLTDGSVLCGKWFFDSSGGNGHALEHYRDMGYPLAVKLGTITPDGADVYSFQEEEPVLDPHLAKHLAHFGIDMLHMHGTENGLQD

USP16 ZnF-UBD = USP16 ZnF-UBD (Homo sapiens, UniProt Q9Y5T5); test: SPR binding to USP16 ZnF-UBD
USP16 ZnF-UBD, sequence (Q9Y5T5 25-185): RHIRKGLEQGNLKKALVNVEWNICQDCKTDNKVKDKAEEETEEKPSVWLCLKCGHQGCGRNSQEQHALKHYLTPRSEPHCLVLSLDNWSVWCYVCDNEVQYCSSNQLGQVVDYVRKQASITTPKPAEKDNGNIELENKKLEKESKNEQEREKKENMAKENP

USP20 ZnF-UBD = USP20 ZnF-UBD (Homo sapiens, UniProt Q9Y2K6); test: SPR binding to USP20 ZnF-UBD
USP20 ZnF-UBD, sequence (Q9Y2K6 1-141): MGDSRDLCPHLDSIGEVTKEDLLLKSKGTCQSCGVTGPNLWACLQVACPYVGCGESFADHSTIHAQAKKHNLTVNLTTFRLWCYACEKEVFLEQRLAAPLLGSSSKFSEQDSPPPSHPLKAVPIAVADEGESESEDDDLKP

USP51 ZnF-UBD = target: T7, USP51 ZnF-UBD (Homo sapiens, UniProt Q70EK9); test: SPR binding to USP51 ZnF-UBD
T7 sequence (Q70EK9 176-305): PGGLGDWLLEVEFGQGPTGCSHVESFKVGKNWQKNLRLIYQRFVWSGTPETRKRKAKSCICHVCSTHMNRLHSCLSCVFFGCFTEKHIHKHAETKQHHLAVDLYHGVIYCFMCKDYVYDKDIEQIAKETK

USP3 ZnF-UBD = target: T8, USP3 ZnF-UBD (Homo sapiens, UniProt Q9Y6I4); test: SPR binding to USP3 ZnF-UBD
T8 sequence (Q9Y6I4 1-131): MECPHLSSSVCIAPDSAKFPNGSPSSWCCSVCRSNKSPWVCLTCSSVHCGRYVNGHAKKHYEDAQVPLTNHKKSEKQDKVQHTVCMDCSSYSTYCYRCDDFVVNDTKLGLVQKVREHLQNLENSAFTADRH

BRAP ZnF-UBD = target: T9, BRAP ZnF-UBD (Homo sapiens, UniProt Q7Z569); test: SPR binding to BRAP ZnF-UBD
T9 sequence (Q7Z569 304-390): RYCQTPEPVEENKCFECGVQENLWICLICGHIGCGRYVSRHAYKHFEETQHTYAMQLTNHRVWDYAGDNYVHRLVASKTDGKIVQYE

Cc1ncc([N+](=O)[O-])n1CCOC(=O)NC(Nc1ncccn1)C(Cl)(Cl)Cl (stereo not shown) [Apcin]
pKd (E3 ligase CDC20): 5.00

Ub-RGGdel: C-terminal RGG-deleted Ub construct, negative control in the SPR assay
KD (µM) USP33 (USP33 ZnF-UBD): No binding
KD (µM) USP5 (USP5 ZnF-UBD): No binding
KD (µM) USP39 (USP39 ZnF-UBD): No binding
KD (µM) USP49 (USP49 ZnF-UBD): No binding
KD (µM) HDAC6 (HDAC6 ZnF-UBD): No binding
KD (µM) USP13 (USP13 ZnF-UBD): No binding
KD (µM) USP16 (USP16 ZnF-UBD): No binding
KD (µM) USP20 (USP20 ZnF-UBD): No binding
KD (µM) USP51 (USP51 ZnF-UBD): No binding
KD (µM) USP3 (USP3 ZnF-UBD): No binding
KD (µM) BRAP (BRAP ZnF-UBD): No binding

O=C(O)CNc1ncnc2ccccc12 [Compound 25]
Kd (USP3 ZnF-UBD; KD (µM) USP3): 191 µM
